Laboratory results as given in the Immune Epitope Database (IEDB).

Tests used:
HLA-A*03:01 [1] = test: IEDB peptide-MHC binding, purified MHC/direct/fluorescence; filed as Kd, often an IC50 or EC50 that approximates it; ≥ and ≤ were set here for values at or beyond the usual limits of such assays
HLA-A*11:01 [2] = test: as above
HLA-B*15:17 [3] = test: as above
HLA-B*57:01 [4] = test: as above
HLA-B*58:01 = test: as above
HLA-A*31:01 = test: IEDB peptide-MHC binding, purified MHC/competitive/fluorescence; filed as Kd, often an IC50 or EC50 that approximates it; ≥ and ≤ were set here for values at or beyond the usual limits of such assays
HLA-A*02:01 [5] = test: as above; details: source organism: Brucella abortus bv. 2 str. 86/8/59
HLA-A*02:11 = test: as above; details: source organism: Brucella abortus bv. 2 str. 86/8/59
HLA-A*02:12 = test: IEDB peptide-MHC binding, purified MHC/direct/fluorescence; filed as Kd, often an IC50 or EC50 that approximates it; ≥ and ≤ were set here for values at or beyond the usual limits of such assays; details: source organism: Convict Creek 107 virus
HLA-A*02:19 = test: as above; details: source organism: Convict Creek 107 virus
HLA-A*26:01 = test: IEDB peptide-MHC binding, purified MHC/competitive/fluorescence; filed as Kd, often an IC50 or EC50 that approximates it; ≥ and ≤ were set here for values at or beyond the usual limits of such assays; details: source organism: Kurkino virus
HLA-A*69:01 [6] = test: as above; details: source organism: Kurkino virus
HLA-B*15:17 [7] = test: as above; details: source organism: Kurkino virus
HLA-B*18:01 = test: as above; details: source organism: Kurkino virus
HLA-B*27:03 = test: as above; details: source organism: Kurkino virus
HLA-B*39:01 = test: as above; details: source organism: Kurkino virus
HLA-B*46:01 = test: as above; details: source organism: Kurkino virus
HLA-B*51:01 = test: as above; details: source organism: Kurkino virus
HLA-B*57:01 [8] = test: as above; details: source organism: Kurkino virus
HLA-A*69:01 [9] = test: IEDB peptide-MHC binding, purified MHC/direct/fluorescence; filed as Kd, often an IC50 or EC50 that approximates it; ≥ and ≤ were set here for values at or beyond the usual limits of such assays; details: source organism: West Nile virus
HLA-C*05:01 = test: as above; details: source organism: West Nile virus
HLA-A*03:01 [10] = test: IEDB peptide-MHC binding, purified MHC/competitive/fluorescence; filed as Kd, often an IC50 or EC50 that approximates it; ≥ and ≤ were set here for values at or beyond the usual limits of such assays; details: source organism: Escherichia coli 536
HLA-B*15:01 [11] = test: as above; details: source organism: Escherichia coli 536
HLA-A*30:02 = test: IEDB peptide-MHC binding, purified MHC/competitive/radioactivity; filed as Kd, often an IC50 or EC50 that approximates it; ≥ and ≤ were set here for values at or beyond the usual limits of such assays; details: source organism: Dengue virus 4 Philippines/H241/1956
HLA-B*15:01 [12] = test: as above; details: source organism: Dengue virus 4 Philippines/H241/1956
HLA-B*15:42 = test: IEDB peptide-MHC binding, purified MHC/competitive/fluorescence; filed as Kd, often an IC50 or EC50 that approximates it; ≥ and ≤ were set here for values at or beyond the usual limits of such assays; details: source organism: Yersinia pestis Nepal516
HLA-B*45:06 = test: as above; details: source organism: Yersinia pestis Nepal516
HLA-B*83:01 = test: as above; details: source organism: Yersinia pestis Nepal516
HLA-A*02:01 [13] = test: IEDB peptide-MHC binding, purified MHC/competitive/fluorescence; ≥ and ≤ were set here for values at or beyond the usual limits of such assays; details: source organism: Zaire ebolavirus
HLA-A*03:01 [14] = test: as above; details: source organism: Zaire ebolavirus
HLA-A*11:01 [15] = test: as above; details: source organism: Zaire ebolavirus
HLA-A*24:02 = test: as above; details: source organism: Zaire ebolavirus
HLA-B*15:01 [16] = test: as above; details: source organism: Zaire ebolavirus
[17] = source organism: West Nile virus
[18] = source organism: Bacillus anthracis
[19] = source organism: Vibrio vulnificus YJ016
[20] = source organism: dengue virus type 4
[21] = source organism: Yersinia pestis
[22] = source organism: Giardia lamblia ATCC 50803

Work on ITYTDVLRY yielded a Kd (HLA-A*03:01 [1]; [17]) of 144 nM, a Kd (HLA-A*11:01 [2]; [17]) of 14.8 nM and a Kd (HLA-B*15:17 [3]; [17]) of at most 1 nM. It also gave a Kd (HLA-B*57:01 [4]; [17]) of 105 nM, a Kd (HLA-B*58:01; [17]) of 38 nM and a Kd (HLA-A*31:01; [17]) of at least 20000 nM.
In the case of ILDDPEIYP, the Kd (HLA-A*02:01 [5]) is reported as 12000 nM and the Kd (HLA-A*02:11) is reported as 677 nM.
With CSTLPFHTW the Kd (HLA-B*15:17 [3]; [18]) was 1.2 nM, the Kd (HLA-B*57:01 [4]; [18]) was 7.1 nM and the Kd (HLA-B*58:01; [18]) was 3.8 nM.
Work on WFLYVSQQI yielded a Kd (HLA-A*02:12) of at least 20000 nM, a Kd (HLA-A*02:19) of at least 20000 nM and a Kd (HLA-A*03:01 [1]; source organism: Convict Creek 107 virus) of at least 20000 nM. For the same sequence, the Kd (HLA-A*26:01) was at least 20000 nM, the Kd (HLA-A*69:01 [6]) was at least 20000 nM and the Kd (HLA-B*15:17 [7]) was at least 20000 nM. For the same sequence, the Kd (HLA-B*18:01) was at least 20000 nM, the Kd (HLA-B*27:03) was at least 20000 nM and the Kd (HLA-B*39:01) was at least 20000 nM. The Kd (HLA-B*46:01) was at least 20000 nM, the Kd (HLA-B*51:01) was at least 20000 nM and the Kd (HLA-B*57:01 [8]) was at least 20000 nM.
Work on FLAVGGVLL yielded a Kd (HLA-A*69:01 [9]) of at least 20000 nM and a Kd (HLA-C*05:01) of 4180 nM.
Work on KLIAVPHTK yielded a Kd (HLA-A*03:01 [10]) of 135 nM, a Kd (HLA-A*31:01; source organism: Escherichia coli 536) of 900 nM and a Kd (HLA-B*15:01 [11]) of at least 20000 nM.
With ATGFPFFDR the Kd (HLA-A*03:01 [1]; [19]) was at least 20000 nM, the Kd (HLA-A*11:01 [2]; [19]) was 1.1 nM and the Kd (HLA-A*31:01; [19]) was 2.35 nM.
In the case of KVASAGISY, the Kd (HLA-A*11:01 [2]; [20]) is reported as 52.1 nM, the Kd (HLA-A*31:01; [20]) is reported as at least 20000 nM and the Kd (HLA-A*30:02) is reported as 40.4 nM. It also gave a Kd (HLA-B*15:01 [12]) of 1.85 nM.
Sequence GSYFSGFYK has a Kd (HLA-A*03:01 [1]; [21]) of 13.7 nM, a Kd (HLA-A*11:01 [2]; [21]) of at most 1 nM and a Kd (HLA-A*31:01; source organism: Yersinia pestis Nepal516) of at most 1 nM. The Kd (HLA-B*15:42) was at least 5000 nM, the Kd (HLA-B*45:06) was at least 5000 nM and the Kd (HLA-B*83:01) was at least 5000 nM.
AIGLAWIPY showed an IC50 (HLA-A*02:01 [13]) of at least 245000 nM, an IC50 (HLA-A*03:01 [14]) of 1540 nM and an IC50 (HLA-A*11:01 [15]) of 61400 nM. It also gave an IC50 (HLA-A*24:02) of at least 166000 nM and an IC50 (HLA-B*15:01 [16]) of 1460 nM.
NTWNQITKF gave a Kd (HLA-B*15:17 [3]; [22]) of 76.4 nM, a Kd (HLA-B*57:01 [4]; [22]) of 1110 nM and a Kd (HLA-B*58:01; [22]) of 905 nM.
